From paper PMC11395145, “The Archetypal Gamma-Core Motif of Antimicrobial Cys-Rich Peptides Inhibits H^+-ATPases in Target Pathogens” (International Journal of Molecular Sciences, 2024)

Key:
[1] = test system: Pseudomonas aeruginosa 10145 (PAO1); assay: Microbicidal (spread-plate cell viability) assay, pseudomonacidal activity; type: cell-based; conditions: Tris buffer with 50 mM KCl vs without
Description: (§1) First, we tested the antimicrobial activity of Kal-1 and a shorter Kal-1-derived peptide (Kdp15), both containing the complete γ-core signature of human lactoferrin, against C. albicans and P. aeruginosa. Microbicidal (cidal) activity was determined after 90 min of incubation (37 °C; pH 7.4) with a range of concentrations of each hLf-derived peptide.
Figure 1 Cell viability and membrane permeabilization assays. C. albicans or P. aeruginosa (10^6 cells/mL) were incubated (90 min, 37 °C) with each peptide/protein at the indicated concentrations. Aliquots were plated on SDA or TSB, and colonies were counted after 24–48 h (C. albicans) or 24 h (P. aeruginosa). At each point, samples were stained with propidium iodide (PI) and intracellular PI incorporation, indicative of membrane permeabilization, was quantified by flow cytometry. The relative cell viability (blue lines) and cellular permeabilization (red lines) were calculated as the percentage of untreated cells. […]
Microbial susceptibility to the peptides was determined in a spread-plate assay as described previously. […] The cell viability values, expressed as colony forming units (CFUs), were determined relative to incubation without added peptides and represent the mean ± standard deviation (±SD) of at least three independent determinations. […]

[2] = test system: Candida albicans ATCC 10231; conditions: used in control assays; cited from earlier work
Description: (§2) First, we tested the antimicrobial activity of Kal-1 and a shorter Kal-1-derived peptide (Kdp15), both containing the complete γ-core signature of human lactoferrin, against C. albicans and P. aeruginosa. Microbicidal (cidal) activity was determined after 90 min of incubation (37 °C; pH 7.4) with a range of concentrations of each hLf-derived peptide. The hLf γ-core-containing peptides were microbicidal in a concentration-dependent way (Figure 1). […] The IC50 es ...

[3] = test system: Pseudomonas aeruginosa 10145 (PAO1); conditions: used in control assays; cited from earlier work
Description: as §2

P. aeruginosa cells [4] = assay: Oxygen consumption measurement (Clark-type electrode); type: cell-based, Pseudomonas aeruginosa; conditions: 5 × 10^6 cells/mL, peptides at IC50, piericidin A 32 μM, at least 30 min, 25 °C
Description: (§3) Figure 3 Effect of cellular respiration on the microbicidal activity of hLf γ-core-containing peptides. (A,C) Oxygen consumption was measured in C. albicans and P. aeruginosa cellular suspensions in the absence (control) or the presence of kaliocin-1 (Kal-1), Kdp15, or human lactoferrin (hLf), and piericidin A (positive control). (B,D) Effect of cellular respiration on the microbicidal activity of hLf γ-core-containing peptides. Cells (10^6 cells/mL) were pre-incubated (15 min, 37 °C) with 32 μM piericidin A and incubated for 90 min at 37 °C with the peptides hLf or BM2. The cell viability was determined by means of the plate counting method. The results are the mean ± SD from duplicates of at least three independent experiments. * p < 0.05, ** p < 0.01, and *** p < 0.001 were used.
(§4) C. albicans or P. aeruginosa cells were grown to the mid-logarithmic phase, washed twice in Tris buffer, and resuspended in the same buffer, as described in [9, 10]. Briefly, cells (5 × 10^6 cells/mL) were pre-incubated for 15 min at 37 °C with the peptides (IC50). […] Oxygen consumption was measured using a Clark-type oxygen electrode (Dual digital-model 20, Rank Brothers Ltd., Cambridge, UK) in a closed jacketed chamber maintained at 25 °C. […] The viability of the cells was determined at 30 min by removing aliquots from the oxygen chambers and plating the subsequent dilutions on SDA or TSA plates.

[5] = test system: Candida albicans ATCC 10231; assay: Microbicidal (spread-plate cell viability) assay, candidacidal activity; type: cell-based
Description: as §1
Figure 1 Cell viability and membrane permeabilization assays. C. albicans or P. aeruginosa (10^6 cells/mL) were incubated (90 min, 37 °C) with each peptide/protein at the indicated concentrations. Aliquots were plated on SDA or […], and colonies were counted after 24–48 h (C. albicans) or 24 h (P. aeruginosa). At each point, samples were stained with propidium iodide (PI) and intracellular PI incorporation, indicative of membrane permeabilization, was quantified by flow cytometry. The relative cell viability (blue lines) and cellular permeabilization (red lines) were calculated as the percentage of untreated cells. Human lactoferrin (hLf) and the peptide Lfpep were used as negative and positive controls of cellular permeabilization, respectively.
Microbial susceptibility to the peptides was determined in a spread-plate assay as described previously. Briefly, two-fold serially diluted peptides were incubated (37 °C) with approximately 10^6 cells/mL in Tris buffer (10 mM Tris-HCl, pH 7.4). After 90 min of incubation with the peptides, aliquots were removed and plated in duplicate on an appropriate agar plate for each species (SDA for C. albicans, TSA for P. aeruginosa). The plates were incubated for 24–48 h at 30 °C (C. albicans) or 24 h at 37 °C (P. aeruginosa) for enumeration. The cell viability values, expressed as colony forming units (CFUs), were determined relative to incubation without added peptides and represent the mean ± standard deviation (±SD) of at least three independent determinations. For inhibition assays, the cell suspensions were preincubated (15 min at 37 °C) with the corresponding inhibitors before the addition of peptides. […]

P. aeruginosa cells [6] = assay: Cell membrane permeability assay (propidium iodide, flow cytometry); type: cell-based, Pseudomonas aeruginosa; conditions: 90 min, 37 °C, range of concentrations, PI 9 μM
Description: (§5) To determine whether Kal-1 and Kdp15 exert a permeabilizing effect on fungal or bacterial membranes, the cellular influx of the fluorescent nucleic-acid-binding dye propidium iodide (PI) was assessed. As PI itself cannot permeate through an intact phospholipid bilayer, only permeabilized cells take up PI, resulting in DNA intercalation and fluorescence.
(§6) Flow cytometry was used to assess the ability of peptides to permeabilize plasma membranes of cells in incorporation of the DNA intercalating dye propidium iodide (PI). C. albicans or P. aeruginosa cells (10^6 cells/mL) in Tris buffer were incubated with two-fold serially diluted peptides for 90 min at 37 °C and subsequently reincubated with PI (9 μM, final concentration) for 5 min. The suspensions were centrifuged at 1100× g for 10 min and subsequently washed with Tris buffer to remove any unbound PI. The peptide Lfpep was used to disrupt the cytoplasmic membrane (positive control). Cell fluorescence was monitored using a Cytomics FC500 Flow Cytometer (Beckman Coulter Life Sciences, Indianapolis, IN, USA). The PI fluorescence was excited at a wavelength of 488 nm and emission was registered at 610 nm. For each treatment, 20,000 events were measured. Data were acquired and analyzed using CytExpert 2.1 software. Results were expressed as the percentage of PI-positive cells with respect to the unstained cells (control). […]

C. albicans cells [7] = assay: as above; type: cell-based, Candida albicans; conditions: 90 min, 37 °C, range of concentrations, PI 9 μM
Description: as §5, §6

C. albicans cells [8] = assay: Oxygen consumption measurement (Clark-type electrode); type: cell-based, Candida albicans; conditions: 5 × 10^6 cells/mL, peptides at IC50, piericidin A 32 μM, at least 30 min, 25 °C
Description: as §3, §4

C. albicans cells [9] = assay: Measurement of intracellular ATP (BacTiter-Glo); type: cell-based, Candida albicans; conditions: C. albicans 10^6 cells/mL, candidacidal concentration, 90 min, 37 °C; BM2 0.25 μM
Description: Total ATP was measured by using the BacTiter-Glo^TM Microbial Cell Viability Assay (Promega Co., Madison, WI, USA) according to the manufacturer’s instructions. […] Aliquots (100 μL) were incubated (90 min at 37 °C) with kaliocin-1, Kdp15, or human lactoferrin and the BM2 peptide (positive control). One hundred microliters of incubation mix was transferred into a 96-well opaque white plate, mixed with an equal volume of the BacTiter-Glo reagent, and incubated for 15 min in the dark. The reagent used a thermostable luciferase to produce luminescence in an ATP-dependent manner. The emitted luminescence was detected by using a Varioskan Flash multimode reader (Thermo Scientific, Waltham, MA, USA) with a 10 s of shaking and 1 s integration time. A calibration curve was prepared for each experiment, with ATP standards ranging from 1 to 1000 nM. For assays performed in the presence of the BM2 peptide, samples were preincubated with 0.25 μM BM2 for 30 min at 37 °C. All the tests were performed in triplicate at least four times.

B1: hLf: Recombinant human apo-lactoferrin, PM H^+-ATPase inhibitor control (protein, UniProt P02788 20-710, looked up)
Lactotransferrin: GRRRSVQWCAVSQPEATKCFQWQRNMRKVRGPPVSCIKRDSPIQCIQAIAENRADAVTLDGGFIYEAGLAPYKLRPVAAEVYGTERQPRTHYYAVAVVKKGGSFQLNELQGLKSCHTGLRRTAGWNVPIGTLRPFLNWTGPPEPIEAAVARFFSASCVPGADKGQFPNLCRLCAGTGENKCAFSSQEPYFSYSGAFKCLRDGAGDVAFIRESTVFEDLSDEAERDEYELLCPDNTRKPVDKFKDCHLARVPSHAVVARSVNGKEDAIWNLLRQAQEKFGKDKSPKFQLFGSPSGQKDLLFKDSAIGFSRVPPRIDSGLYLGSGYFTAIQNLRKSEEEVAARRARVVWCAVGEQELRKCNQWSGLSEGSVTCSSASTTEDCIALVLKGEADAMSLDGGYVYTAGKCGLVPVLAENYKSQQSSDPDPNCVDRPVEGYLAVAVVRRSDTSLTWNSVKGKKSCHTAVDRTAGWNIPMGLLFNQTGSCKFDEYFSQSCAPGSDPRSNLCALCIGDEQGENKCVPNSNERYYGYTGAFRCLAENAGDVAFVKDVTVLQNTDGNNNEAWAKDLKLADFALLCLDGKRKPVTEARSCHLAMAPNHAVVSRMDKVERLKQVLLHQQAKFGRNGSDCPDKFCLFQSETKNLLFNDNTECLARLHGKTTYEKYLGPQYVAGITNLKKCSTSPLLEACEFLRK
modifications: apo form
effect of high external K^+ on pseudomonacidal activity [1]: seemed to protect | previously reported microbicidal concentration against C. albicans [2]: 5 µM | previously reported microbicidal concentration against P. aeruginosa [3]: 1 µM | oxygen consumption of P. aeruginosa in presence of the substance (P. aeruginosa cells [4]): inability of the native protein hLf to inhibit | IC50 ([5]; 90 min, 37 °C, 10 mM Tris-HCl pH 7.4, 10^6 cells/mL, CFU plating, estimated, read-out: IC50 (concentration that caused 50% reduction in viable counts) against C. albicans): 3000 nM | effect of high external K^+ on candidacidal activity ([5]; Tris buffer with 50 mM KCl vs without): seemed to protect | effect of Tok1p K^+ channel block (TEA^+) on candidacidal activity ([5]; cells pre-incubated 15 min with 10 mM TEA^+): less susceptible | PI fluorescent cells (plasma membrane permeabilization), P. aeruginosa (P. aeruginosa cells [6]): not significantly increased | PI fluorescent cells (plasma membrane permeabilization), C. albicans (C. albicans cells [7]): not significantly increased | oxygen consumption of C. albicans in presence of the substance (C. albicans cells [8]): inability of the native protein hLf to inhibit | increment in intracellular ATP (iATP) level compared to untreated control (C. albicans cells [9]): ~ 6 fold
